Measured values taken from article doi:10.1101/2020.03.13.990150.

Molecular target: Saccharomyces cerevisiae (Sc) Tim9 (Saccharomyces cerevisiae)
Assay: SEC

- stoichiometry N: 2
Substance: Saccharomyces cerevisiae (Sc) Tim9 (natural protein)
